Measurements published in publication PMC3581732 (Molecular microbiology, 2013).

Molecular target: the molecule itself
Assay: cross-linking

B1: TolC Y362F/R367E (YFRE^His), leaky/open mutant with a C-terminal 6His-tag (natural protein)
chain: ENLMQVYQQARLSNPELRKSAADRDAAFEKINEARSPLLPQLGLGADYTYSNGYRDANGINSNATSASLQLTQSIFDMSKWRALTLQEKAAGIQDVTYQTDQQTLILNTATAYFNVLNAIDVLSYTQAQKEAIYRQLDQTTQRFNVGLVAITDVQNARAQYDTVLANEVTARNNLDNAVEQLRQITGNYYPELAALNVENFKTDKPQPVNALLKEAEKRNLSLLQARLSQDLAREQIRQAQDGHLPTLDLTASTGISDTSYSGSKTRGAAGTQYDDSNMGQNKVGLSFSLPIYQGGMVNSQVKQAQYNFVGASEQLESAHRSVVQTVRSSFNNINASISSINAYKQAVVSAQSSLDAMEAGFSVGTETIVDVLDATTTLYNAKQELANARYNYLINQLNIKSALGTLNEQDLLALNNALSKPVSTNPENVAPQTPEQNAIADGYAPDSPAPVVQQTSARTTTSNGHNPFRN
stoichiometry N: 3
